From PMC7055227, “Complete Profiling of Methyl-CpG-Binding Domains for Combinations of Cytosine Modifications at CpG Dinucleotides Reveals Differential Read-out in Normal and Rett-Associated States”

B1: p08 fC/mC duplex (dsDNA)
DNA 1: AAAAAAAAAAACGAAAAAAAAAAA
DNA 2: TTTTTTTTTTTCGTTTTTTTTTTT
modifications: 5-formylcytosine at C12 of strand 1; 5-methylcytosine at C12 of strand 2 (o3116/o2909)
B2: p07 hmC/mC duplex (dsDNA)
DNA 1: AAAAAAAAAAACGAAAAAAAAAAA
DNA 2: TTTTTTTTTTTCGTTTTTTTTTTT
modifications: 5-hydroxymethylcytosine at C12 of strand 1; 5-methylcytosine at C12 of strand 2 (o3115/o2909)
B3: p06 mC/mC duplex (dsDNA)
DNA 1: AAAAAAAAAAACGAAAAAAAAAAA
DNA 2: TTTTTTTTTTTCGTTTTTTTTTTT
modifications: 5-methylcytosine at C12 of strand 1 and C12 of strand 2 (o2967/o2909)
B4: p03 hmC/C duplex (dsDNA)
DNA 1: AAAAAAAAAAACGAAAAAAAAAAA
DNA 2: TTTTTTTTTTTCGTTTTTTTTTTT
modifications: 5-hydroxymethylcytosine at C12 of strand 1; strand 2 unmodified (o3115/o2904)
B5: mC/hmC duplex (dsDNA)
DNA 1: AAAAAAAAAAACGAAAAAAAAAAA
DNA 2: TTTTTTTTTTTCGTTTTTTTTTTT
modifications: 5-methylcytosine at C12 of one strand, 5-hydroxymethylcytosine at C12 of the other; strand assignment not certain
B6: p10 hmC/hmC duplex (dsDNA)
DNA 1: AAAAAAAAAAACGAAAAAAAAAAA
DNA 2: TTTTTTTTTTTCGTTTTTTTTTTT
modifications: 5-hydroxymethylcytosine at C12 of strand 1 and C12 of strand 2 (o3115/o3112)
B7: hmC/fC duplex (dsDNA)
DNA 1: AAAAAAAAAAACGAAAAAAAAAAA
DNA 2: TTTTTTTTTTTCGTTTTTTTTTTT
modifications: 5-hydroxymethylcytosine at C12 of one strand, 5-formylcytosine at C12 of the other; strand assignment not certain
B8: p11 fC/hmC duplex (dsDNA)
DNA 1: AAAAAAAAAAACGAAAAAAAAAAA
DNA 2: TTTTTTTTTTTCGTTTTTTTTTTT
modifications: 5-formylcytosine at C12 of strand 1; 5-hydroxymethylcytosine at C12 of strand 2 (o3116/o3112)
B9: mC/fC duplex (dsDNA)
DNA 1: AAAAAAAAAAACGAAAAAAAAAAA
DNA 2: TTTTTTTTTTTCGTTTTTTTTTTT
modifications: 5-methylcytosine at C12 of one strand, 5-formylcytosine at C12 of the other; strand assignment not certain
B10: probe p03 (dsDNA)
DNA 1: AAAAAAAAAAACGAAAAAAAAAAA
DNA 2: TTTTTTTTTTTCGTTTTTTTTTTT
modifications: cytosine states of p03 not given in the material (perhaps C/C)

Key:
hMeCP2 MBD [1] = molecular target: hMeCP2 MBD (Homo sapiens, UniProt P51608 90-181); assay: EMSA; 20 mM HEPES, 30 mM KCl, 1 mM EDTA, 10 mM (NH4)2SO4, pH 7.3, 1 mM DTT, 0.2% Tween 20, 50 ng/uL poly(dA)-poly(dT) trap, 2 nM duplex, protein in dialysis buffer with BSA; 20 min room temperature; gel at 4 C; details: protein: recombinant, label: 5' 6-FAM on strand 1
Sequence of hMeCP2 MBD (Homo sapiens, UniProt P51608 90-181) (P51608 90-181): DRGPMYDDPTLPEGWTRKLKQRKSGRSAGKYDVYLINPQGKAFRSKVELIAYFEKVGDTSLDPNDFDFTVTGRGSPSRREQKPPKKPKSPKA

hMBD4 MBD [2] = molecular target: T1, hMBD4 MBD (Homo sapiens, UniProt O95243); assay: EMSA; lower than mC/fC; EMSA: 20 mM HEPES pH 7.3, 30 mM KCl, 1 mM EDTA, 10 mM (NH4)2SO4, 1 mM DTT, 0.2% Tween 20, 50 ng/uL poly(dA)-poly(dT), protein diluted in dialysis buffer with 0.1 mg/mL BSA; 2 nM duplex; 20 min at room temperature; gel at 4 C; details: protein: recombinant; tags: N-term SpA(Z)-Factor Xa-TEV, C-term 8xHis; label: 5' 6-FAM on strand 1; blunt
T1 sequence (O95243 76-167): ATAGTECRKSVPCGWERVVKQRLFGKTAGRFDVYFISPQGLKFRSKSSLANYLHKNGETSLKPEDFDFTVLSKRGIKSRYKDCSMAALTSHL

hMBD4 MBD [3] = molecular target: T1, hMBD4 MBD; assay: EMSA; new preferred combination; EMSA: 20 mM HEPES pH 7.3, 30 mM KCl, 1 mM EDTA, 10 mM (NH4)2SO4, 1 mM DTT, 0.2% Tween 20, 50 ng/uL poly(dA)-poly(dT), protein diluted in dialysis buffer with 0.1 mg/mL BSA; 2 nM duplex; 20 min at room temperature; gel at 4 C; details: protein: recombinant; tags: N-term SpA(Z)-Factor Xa-TEV, C-term 8xHis; label: 5' 6-FAM on strand 1; blunt
hMBD4 MBD [4] = molecular target: T1, hMBD4 MBD; assay: EMSA; higher than mC/hmC; EMSA: 20 mM HEPES pH 7.3, 30 mM KCl, 1 mM EDTA, 10 mM (NH4)2SO4, 1 mM DTT, 0.2% Tween 20, 50 ng/uL poly(dA)-poly(dT), protein diluted in dialysis buffer with 0.1 mg/mL BSA; 2 nM duplex; 20 min at room temperature; gel at 4 C; details: protein: recombinant; tags: N-term SpA(Z)-Factor Xa-TEV, C-term 8xHis; label: 5' 6-FAM on strand 1; blunt
hMeCP2 MBD [5] = molecular target: hMeCP2 MBD (Homo sapiens, UniProt P51608); assay: EMSA; poly(dA)-poly(dT) 50 ng/uL; EMSA: 20 mM HEPES pH 7.3, 30 mM KCl, 1 mM EDTA, 10 mM (NH4)2SO4, 1 mM DTT, 0.2% Tween 20, 50 ng/uL poly(dA)-poly(dT), protein diluted in dialysis buffer with 0.1 mg/mL BSA; 2 nM duplex; 20 min at room temperature; gel at 4 C; details: protein: recombinant; tags: N-term SpA(Z)-Factor Xa-TEV, C-term 8xHis; label: 5' 6-FAM on strand 1; blunt
Sequence of hMeCP2 MBD (Homo sapiens, UniProt P51608) (P51608 90-181): as the sequence (P51608 90-181) above

Binder | Kd (hMeCP2 MBD [1]; blunt) [nM] | also measured
B1 | 197 ± 24 | 
B2 | 224 ± 24.6 | 
B3 | 26.6 ± 3.85 | 
B4 | 1080 ± 101 | 
B5 |  | binding result (hMBD4 MBD [2]): binds
B6 |  | Kd (hMeCP2 MBD [1]): 967 ± 89.6 nM
B7 |  | binding result (hMBD4 MBD [3]): binds
B8 | 541 ± 62.7 | 
B9 |  | binding result (hMBD4 MBD [4]): binds
B10 |  | Kd (hMeCP2 MBD [5]): 1080 ± 101 nM
